Assay results reported in publication PMC3162126.

Tests used:
AidB [1] = biological target: T1, AidB (Escherichia coli, UniProt P33224 1-541); assay: EMSA
T1 sequence: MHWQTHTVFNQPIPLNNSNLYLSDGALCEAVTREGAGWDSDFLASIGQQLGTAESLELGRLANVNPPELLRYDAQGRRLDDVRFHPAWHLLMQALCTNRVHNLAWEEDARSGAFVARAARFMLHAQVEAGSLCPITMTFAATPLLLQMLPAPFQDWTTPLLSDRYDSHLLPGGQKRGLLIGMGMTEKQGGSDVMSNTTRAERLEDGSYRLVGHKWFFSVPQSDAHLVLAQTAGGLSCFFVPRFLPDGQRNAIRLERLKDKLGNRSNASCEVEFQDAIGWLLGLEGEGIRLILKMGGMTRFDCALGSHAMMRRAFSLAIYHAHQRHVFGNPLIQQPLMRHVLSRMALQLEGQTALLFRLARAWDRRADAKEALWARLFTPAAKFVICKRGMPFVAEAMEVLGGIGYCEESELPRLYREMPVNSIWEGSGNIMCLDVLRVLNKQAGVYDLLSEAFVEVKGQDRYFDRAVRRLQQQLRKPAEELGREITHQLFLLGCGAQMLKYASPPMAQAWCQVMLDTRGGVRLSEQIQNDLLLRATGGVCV

AidB [2] = biological target: T1, AidB; assay: competition
AidB [3] = biological target: T1, AidB; assay: competition; remark: listed apart in the source

B1: rrnB P1wt (+UP), biotinylated probe (dsDNA)
DNA 1: AGAAAATTATTTTAAATTTCCTCTTGTCAGGCCGGAATAACTCCCTATAAT
DNA 2: ATTATAGGGAGTTATTCCGGCCTGACAAGAGGAAATTTAAAATAATTTTCT
binding result (AidB [1]): binds

B2: rrnB P1wt (+UP), unlabelled competitor (dsDNA)
DNA 1: AGAAAATTATTTTAAATTTCCTCTTGTCAGGCCGGAATAACTCCCTATAAT
DNA 2: ATTATAGGGAGTTATTCCGGCCTGACAAGAGGAAATTTAAAATAATTTTCT
binding result (AidB [2]): binds

B3: rrnB P1ΔUP (-UP), unlabelled competitor (dsDNA)
DNA 1: CCTCTTGTCAGGCCGGAATAACTCCCTATAAT
DNA 2: ATTATAGGGAGTTATTCCGGCCTGACAAGAGG
binding result (AidB [3]): no binding
